Test system: Bacillus subtilis
Assay: cleaved RNA product abundance (RNA/gDNA barcode ratio) relative to median wild-type variant (ratio to wild type); higher = more accumulation of the downstream cleavage product
How it was run: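 The B. subtilis chromosome carried reporter mRNAs, truncated aprE or tetM, containing barcoded RNase Y cleavage-site windows mutagenized using oligos with a 9% error rate. After growth in LB at 37°C from OD600 0.0003 to 0.3, cleaved RNA was gel-selected, reverse transcribed and barcode-sequenced next to genomic DNA barcodes, with UMI collapsing. Each construct's RNA:gDNA barcode ratio was scaled to the median construct with the unmutated site. That scaled ratio is reported as cleaved product abundance.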

[1] = experiment (reporter, strain, medium): exp 4a: truncated aprE reporter, strain BJT201 with 2% xylose (RNase J1 expressed), cleavage site: cggR-gapA (positions -7 to +36 mutated)
[2] = experiment (reporter, strain, medium): exp 2b: truncated aprE reporter, strain BJT200, cleavage site: cggR-gapA (positions -7 to +36 mutated)
[3] = experiment (reporter, strain, medium): exp 8a: truncated aprE reporter, strain BJT201 with 2% xylose (RNase J1 expressed), cleavage site: glnRA (positions -5 to +31 mutated)

ACAGACGAAGGAGCCGCAAAGAAGTTATTAAGGTATGAGTAATCCCTCAATATAAATATCTCTCACTTATTTAAA
cleaved RNA product abundance [1]: 0.224

ACAGACGAAGGAGCCGCAAACAATTTATTAAGAGATGAATAATCCCTCAATATAAATATCTCTCACTTATTTAAA
cleaved RNA product abundance [1]: 0.128

ACAGACGAAGGAGCCGCCAAGAAGTTATTAAGGGATGAATAATCCCTTAATATAAATATCTCTCACTTATTTAAA
cleaved RNA product abundance [2]: 0.21
cleaved RNA product abundance [1]: 0.305

CGACATGTCCCGCTTCTTTCATTAATCCGTTACCAATTGTTTTGCTATATACATTTACCTTTTAAGAGGAGGAAT
cleaved RNA product abundance [3]: 0.16

ACAGACGAAGGAGCCGCAAAAAAGTTATTAAGTGATGAATAATCCCTCAATATAAATATCTCTCACTTATTTAAA
cleaved RNA product abundance [2]: 0.119
cleaved RNA product abundance [1]: 0.0972

CGACATGTCCCGCTTCTTTCATTAATCCGTTACCAACTGTTTTGCTATATATATTTACCTTTTAAGAGGAGGAAT
cleaved RNA product abundance [3]: 0.212

CGACATGTCCCGCTTCTTTCATTACTCCGTTAGCAACTGTTTTGTTATATACATTTACCTTTTAAGAGGAGGAAT
cleaved RNA product abundance [3]: 0.573

ACAGACGAAGGAGCCGCAAAGAAGTTGTTAAGGGATGAATAAACCCTCAATATAAATATCTCTCACTTATTTAAA
cleaved RNA product abundance [1]: 0.2

CGACATGTCCCGCTTCTTTCATTAATCCGTGAGCAACTATTTTGCTATATACATTTACCTTTTAAGAGGAGGAAT
cleaved RNA product abundance [3]: 0.988

ACAGACGAAGGAGCCGCAAGGAAGTTATAAAGGGATGAATAATCCCTCAATATAAATATCTCTCACTTATTTAAA
cleaved RNA product abundance [1]: 0.578

CGACATGTCCCGCTTCTTTCATTAATACGTTATCAACTGTTTTGCTATATACATTTACCTTTTAAGAGGAGGAAT
cleaved RNA product abundance [3]: 0.281

ACAGACGAAGGAGCCGCGAAGAAGTTATTAAGGTATGAATAATCCCTCAATATAAATATCTCTCACTTATTTAAA
cleaved RNA product abundance [2]: 0.117
cleaved RNA product abundance [1]: 0.143

CGACATGTCCCGCTTCTTTCATTAATCCGTGAGCAACTGTTTAGCTATATACATTTACCTTTTAAGAGGAGGAAT
cleaved RNA product abundance [3]: 0.335

ACAGACGAAGGAGCCGCAAAGAAGTTATTAAGAGATGAATAATCCCTCAATCTAAATATCTCTCACTTATTTAAA
cleaved RNA product abundance [1]: 0.0377

CGACATGTCCCGCTTCTTTCATTAATCCGTTAGCAACTGTTTTGCAATATACATTTACCTTTTAAGAGGAGGAAT
cleaved RNA product abundance [3]: 0.436

CGACATGTCCCGCTTCTTTCATTAATCTGTTATCAACTGTTTTGCTATATACATTTACCTTTTAAGAGGAGGAAT
cleaved RNA product abundance [3]: 0.403

ACAGACGAAGGAGCCGCAAAGAAGTTATTAAGGGATTAATAAACCCTCAATATAAATATCTCTCACTTATTTAAA
cleaved RNA product abundance [2]: 0.559
cleaved RNA product abundance [1]: 0.575

ACAGACGAAGGAGCCGCAAAGAAGTTATTAAGCGATGAACAATCCCTCAATATAAATATCTCTCACTTATTTAAA
cleaved RNA product abundance [1]: 0.133

ACAGACGAAGGAGCCGCAAAGAAGCTATTAAGGGACGAATAATCCCTCAATATAAATATCTCTCACTTATTTAAA
cleaved RNA product abundance [1]: 0.436

CGACATGTCCCGCTTCTTTCATTATCCGTTAGCAACTGTTTTGCTATATACATTTACCTTTTAAGAGGAGGAATT
cleaved RNA product abundance [3]: 0.941

ACAGACGAAGGAGCCGCAAAAAAGTTATTAAGGGATGAATAATCCCCCAATATAAATATCTCTCACTTATTTAAA
cleaved RNA product abundance [2]: 0.238
cleaved RNA product abundance [1]: 0.35

ACAGACGAAGGAGCCGCAAAGAAGTGATTAACGGATGAATAATCCCTCAATATAAATATCTCTCACTTATTTAAA
cleaved RNA product abundance [2]: 0.129
cleaved RNA product abundance [1]: 0.0991

ACAGACGAAGGAGCCGCAAAGAAGTTATTAAGCGATTAATAATTCCTCAATATAAATATCTCTCACTTATTTAAA
cleaved RNA product abundance [1]: 0.0664

ACAGACGAAGGAGCCGCAAAGAAGTTATTATGGGATGAATAACCCCTCAATATAAATATCTCTCACTTATTTAAA
cleaved RNA product abundance [1]: 0.194

ACAGACGAAGGAGCCGCAAAGAAGTTATTAACGGATGAAAAATCCCTCAATATAAATATCTCTCACTTATTTAAA
cleaved RNA product abundance [2]: 0.104
cleaved RNA product abundance [1]: 0.133

CGACATGTCCCGCTTCTTTCATTAATCCGTAAGCTACTGTTTTGCTATATACATTTACCTTTTAAGAGGAGGAAT
cleaved RNA product abundance [3]: 0.123

CGACATGTCCCGCTTCTTTCATTAATCCGTTAGCAACTGTTTTAATATATACATTTACCTTTTAAGAGGAGGAAT
cleaved RNA product abundance [3]: 0.589

ACAGACGAAGGAGCCGCAAAGAATTTATCAAGGGATGAATAATCCCTCAATATAAATATCTCTCACTTATTTAAA
cleaved RNA product abundance [2]: 0.275
cleaved RNA product abundance [1]: 0.377

ACAGACGAAGGAGCCGCAAAGAACTTATTAAGGGATGAATAATCCCTCAAAATAAATATCTCTCACTTATTTAAA
cleaved RNA product abundance [1]: 0.208

ACAGACGAAGGAGCCGCAAAGAAGTTATTAAGGGATTAATCATCCCTCAATATAAATATCTCTCACTTATTTAAA
cleaved RNA product abundance [1]: 1.2

CGACATGTCCCGCTTCTTTCATTAATCCGTTTGCAACTGATTTGCTATATACATTTACCTTTTAAGAGGAGGAAT
cleaved RNA product abundance [3]: 0.51

CGACATGTCCCGCTTCTTTCATTAATCAGTTAGCAACTGTTTTGCTATATACATTTAACTTTTAAGAGGAGGAAT
cleaved RNA product abundance [3]: 0.983

CGACATGTCCCGCTTCTTTCATTAATCCATTAGCAACTGTTTTGCTATATACATATACCTTTTAAGAGGAGGAAT
cleaved RNA product abundance [3]: 0.929

ACAGACGAAGGAGCCGCCAAGAAGTAATTAAGGGATGAATAATCCCTCAATATAAATATCTCTCACTTATTTAAA
cleaved RNA product abundance [1]: 0.375

CGACATGTCCCGCTTCTTTCATTAATCCGTTAGCAACTGTTTTCCTATATACATTTATCTTTTAAGAGGAGGAAT
cleaved RNA product abundance [3]: 0.55

ACAGACGAAGGAGCCGCAAAGAAGTTATTAAGGGATTAATAATCCCTGAATATAAATATCTCTCACTTATTTAAA
cleaved RNA product abundance [1]: 0.768

CGACATGTCCCGCTTCTTTCATTAATCCGTTAGCAACTGTTTTGCTATATATAATTACCTTTTAAGAGGAGGAAT
cleaved RNA product abundance [3]: 0.919

ACAGACGAAGGAGCCGCAAAGAAGCTATTAAGGGATGAAAAATCCCTCAATATAAATATCTCTCACTTATTTAAA
cleaved RNA product abundance [2]: 0.391
cleaved RNA product abundance [1]: 0.491

ACAGACGAAGGAGCCGCAAAAAAGTTATTAAGGGGTGAATAATCCCTCAATATAAATATCTCTCACTTATTTAAA
cleaved RNA product abundance [2]: 0.759
cleaved RNA product abundance [1]: 0.602

ACAGACGAAGGAGCCGCAAAGAAGTTATTAAGGGATGATTAATCCCTCAATAGAAATATCTCTCACTTATTTAAA
cleaved RNA product abundance [1]: 0.0935

ACAGACGAAGGAGCCGCAAAGAAGTTATTAAGGGATGAATAAGCCCTCAAAATAAATATCTCTCACTTATTTAAA
cleaved RNA product abundance [1]: 0.261

ACAGACGAAGGAGCCGCAAACAAGTTATTAAGGGATGAATAATCCCCCAATATAAATATCTCTCACTTATTTAAA
cleaved RNA product abundance [1]: 0.137

ACAGACGAAGGAGCCGCAAAGAAGTTATTAAGGGATGAATAATCCATCAATTTAAATATCTCTCACTTATTTAAA
cleaved RNA product abundance [1]: 0.13

ACAGACGAAGGAGCCGCAAAGAAGATATTAAGGGATGAACAATCCCTCAATATAAATATCTCTCACTTATTTAAA
cleaved RNA product abundance [1]: 0.647

ACAGACGAAGGAGCCGCAAAGAAGTTATTAAGGGATGAATTATCCCTCAATATATATATCTCTCACTTATTTAAA
cleaved RNA product abundance [1]: 0.616

ACAGACGAAGGAGCCGCAAGGAAGTTATTAAGTGATGAATAATCCCTCAATATAAATATCTCTCACTTATTTAAA
cleaved RNA product abundance [1]: 0.149

ACAGACGAAGGAGCCGCTAAGAAGTTATTAAGGGACGAATAATCCCTCAATATAAATATCTCTCACTTATTTAAA
cleaved RNA product abundance [1]: 0.573

CGACATGTCCCGCTTCTTTCATTACTCCGTTAGCAACTGTTTTGCTATATACGTTTACCTTTTAAGAGGAGGAAT
cleaved RNA product abundance [3]: 0.332

ACAGACGAAGGAGCCGCAAAAAAGTTATTAAGGAATGAACAATCCCTCAATATAAATATCTCTCACTTATTTAAA
cleaved RNA product abundance [1]: 0.182

CGACATGTCCCGCTTCTTTCATTAATTCGTTAGCAACTGTTTTGCTATATAAATTTACCTTTTAAGAGGAGGAAT
cleaved RNA product abundance [3]: 1.12

ACAGACGAAGGAGCCGCAAATAAGTTATTAAGGGTTGAATAATCCCTCAATATAAATATCTCTCACTTATTTAAA
cleaved RNA product abundance [2]: 0.425
cleaved RNA product abundance [1]: 0.423

ACAGACGAAGGAGCCGCAAAGAAGTTATTAAGGGATAAATAATCCCTCAGTATAAATATCTCTCACTTATTTAAA
cleaved RNA product abundance [1]: 0.242

CGACATGTCCCGCTTCTTTCATTATTCCGTTAGCAACTGTTTTGCTATATACACTTACCTTTTAAGAGGAGGAAT
cleaved RNA product abundance [3]: 1.07

CGACATGTCCCGCTTCTTTCATTACTCCGTTACCAACTGTTTTGCTATATACATTTACCTTTTAAGAGGAGGAAT
cleaved RNA product abundance [3]: 0.176

ACAGACGAAGGAGCCGCAAAGAAGATATTAAGGGATGAATAATCCCTCAATATAAATGTCTCTCACTTATTTAAA
cleaved RNA product abundance [2]: 0.338
cleaved RNA product abundance [1]: 0.393

CGACATGTCCCGCTTCTTTCATTAATCAGTTAGCAACTGTTTTGCAATATACATTTACCTTTTAAGAGGAGGAAT
cleaved RNA product abundance [3]: 0.332

ACAGACGAAGGAGCCGCAAAGAAGTTATTAAGGGAGGAATAATCCCTCAAAATAAATATCTCTCACTTATTTAAA
cleaved RNA product abundance [1]: 0.284

ACAGACGAAGGAGCCGCAAAGAAGTTATTAAGGTATGAATATTCCCTCAATATAAATATCTCTCACTTATTTAAA
cleaved RNA product abundance [1]: 0.0859

ACAGACGAAGGAGCCGCAAAGAAGTTATTAAGGGATGAACAATACCTCAATATAAATATCTCTCACTTATTTAAA
cleaved RNA product abundance [1]: 0.229

ACAGACGAAGGAGCCGCAAAGAATTTATTAAGGGATGAATAATCCCTCAATTTAAATATCTCTCACTTATTTAAA
cleaved RNA product abundance [2]: 0.154
cleaved RNA product abundance [1]: 0.0947

ACAGACGAAGGAGCCGCAAAGAAGTTATTAAGCGATGAATAATGCCTCAATATAAATATCTCTCACTTATTTAAA
cleaved RNA product abundance [1]: 0.112

ACAGACGAAGGAGCCGCAAAGAAGTTATTAAGGGATGAATAAACCCTGAATATAAATATCTCTCACTTATTTAAA
cleaved RNA product abundance [2]: 0.303
cleaved RNA product abundance [1]: 0.388
